{"source": "paper PMC5877399", "about": "(Biomacromolecules, 2014)", "binders": {"B1": {"name": "PA2-Gd(DO3A), palmitoyl-MAAAEEEEK(DO3A:Gd)-NH2 (peptide)", "peptide": "MAAAEEEEK", "modifications": "not fully specified; palmitoyl on the N-terminus; K(DO3A:Gd); C-terminal amide (NH2)"}}, "key": {"[1]": {"molecular_target": "T1, PA1-Gd(DO3A), palmitoyl-IAAAEEEEK(DO3A:Gd)-NH2 (not fully specified (residue 9); printed as palmitoyl-IAAAEEEEK(DO3A:Gd)-NH2; also: Gd complex of DO3A)", "T1 peptide": "Palmitoyl-IAAAEEEEK-NH2", "test": "fluorescence polarisation"}, "[2]": {"molecular_target": "B1", "test": "fluorescence polarisation"}, "[3]": {"molecular_target": "the molecule itself", "test": "circular dichroism spectroscopy"}}, "note": "*: point of attachment. Ru(bipy)3 = tris(bipyridine)ruthenium complex attached to the Lys ε-amine via an NHS ester; Palmitoyl = CCCCCCCCCCCCCCCC(=O)*", "data": [{"binder": "Palmitoyl-IAAAEEEEK(Ru(bipy)3)-NH2 (also: Ru(bipy)3 via NHS ester linker, Ru complex)", "note": "[PA1-Ru(bipy)3, palmitoyl-IAAAEEEEK[Ru(bipy)3]-NH2]", "values": [{"measurement": "binding result", "setting": "[1]", "value": "binds"}]}, {"binder": "Palmitoyl-MAAAEEEEK(Ru(bipy)3)-NH2 (also: Ru(bipy)3 via NHS ester linker, Ru complex)", "note": "[PA2-Ru(bipy)3, palmitoyl-MAAAEEEEK[Ru(bipy)3]-NH2]", "values": [{"measurement": "binding result", "setting": "[2]", "value": "binds"}]}, {"binder": "B1", "values": [{"measurement": "binding result", "setting": "[3]", "value": "binds"}]}]}
